Data taken from patent US20060193821, “Aptamers to the human IL-12 cytokine family and their use as autoimmune disease therapeutics” (published 2006).

B1: ARC1470 (mixed)
RNA: GGCAAGUAAUUGGGGAGUGCGGGCGGGG
modifications: deoxy A,G; 2'-OMe C,U; six PS; 3'-idT [2'-OMe C,U at 3,7,10,11,18,20,24; deoxy A,G elsewhere; PS 8-9,16-17,17-18,18-19,19-20,23-24 (N = PS linkage, left out); 3'-inverted dT at 29]
B2: ARC1471 (mixed)
RNA: GGCAAGUAAUUGGGGAGUGCGGGCGGGG
modifications: 2'-OMe C,U and three purines (A7,A8,G15 of ARC979); six PS; 3'-idT [2'-OMe C,U at 3,7,10,11,18,20,24; 2'-OMe purines A4,A5,G12; deoxy A,G elsewhere; PS 8-9,16-17,17-18,18-19,19-20,23-24 (N = PS linkage, left out); 3'-inverted dT at 29]
B3: AMX86-B5 (ssRNA)
RNA: GGGAAAAGCGAAUCAUACACAAGAUUAGUGCGUGUGUUGAAAGGGCUCAUAAUGUCAGUAUCGAGCUCCGCCAGAGACCAACCGAGAA
modifications: 2'-F C,U
B4: ARC1621 (mixed)
RNA: ACAGGCAAGUAAUUGGGGAGUGCGGGCGGGGUGU
modifications: 2'-OMe C,U and G16,G17,G24,G25,G30,G31; other A,G deoxy; PS 3-4,4-5; 3'-idT [PS 3-4,4-5; 2'-OMe at 2,6,10,13,14,16,17,21,23,24,25,27,30,31,32,34; other A,G deoxy; 3'-inverted dT at 35]
B5: ARC1461 (mixed)
RNA: B4 RNA
modifications: deoxy A,G; 2'-OMe C,U; PS 25-26; 3'-idT [PS linkage 25-26; 2'-OMe C,U at 2,6,10,13,14,21,23,27,32,34; all A,G 2'-deoxy; 3'-inverted dT at 35]
B6: ARC1460 (mixed)
RNA: B4 RNA
modifications: deoxy A,G; 2'-OMe C,U; PS 24-25; 3'-idT [PS linkage 24-25; 2'-OMe C,U at 2,6,10,13,14,21,23,27,32,34; all A,G 2'-deoxy; 3'-inverted dT at 35]
B7: ARC1458 (mixed)
RNA: B4 RNA
modifications: deoxy A,G; 2'-OMe C,U; PS 17-18; 3'-idT [PS linkage 17-18; 2'-OMe C,U at 2,6,10,13,14,21,23,27,32,34; all A,G 2'-deoxy; 3'-inverted dT at 35]
B8: ARC1456 (mixed)
RNA: B4 RNA
modifications: deoxy A,G; 2'-OMe C,U; PS 15-16; 3'-idT [PS linkage 15-16; 2'-OMe C,U at 2,6,10,13,14,21,23,27,32,34; all A,G 2'-deoxy; 3'-inverted dT at 35]
B9: ARC1459 (mixed)
RNA: B4 RNA
modifications: deoxy A,G; 2'-OMe C,U; PS 23-24; 3'-idT [PS linkage 23-24; 2'-OMe C,U at 2,6,10,13,14,21,23,27,32,34; all A,G 2'-deoxy; 3'-inverted dT at 35]
B10: ARC1463 (mixed)
RNA: B4 RNA
modifications: deoxy A,G; 2'-OMe C,U; PS 30-31; 3'-idT [2'-OMe C,U at 2,6,10,13,14,21,23,27,32,34; deoxy A,G elsewhere; PS 30-31 (N = PS linkage, left out); 3'-inverted dT at 35]
B11: ARC1454 (mixed)
RNA: B4 RNA
modifications: deoxy A,G; 2'-OMe C,U; PS 4-5; 3'-idT [PS linkage 4-5; 2'-OMe C,U at 2,6,10,13,14,21,23,27,32,34; all A,G 2'-deoxy; 3'-inverted dT at 35]

Experiments:
[1] = target: T1, IL-23 (human, p19/p40 heterodimer) (Homo sapiens, UniProt Q9NPF7;P29460 SEQ:20-189,SEQ:23-328); test: filter; DPBS Ca Mg; conditions: tags: R&D Systems, carrier free
T1 sequence (Q9NPF7 20-189, chain 1 of 2): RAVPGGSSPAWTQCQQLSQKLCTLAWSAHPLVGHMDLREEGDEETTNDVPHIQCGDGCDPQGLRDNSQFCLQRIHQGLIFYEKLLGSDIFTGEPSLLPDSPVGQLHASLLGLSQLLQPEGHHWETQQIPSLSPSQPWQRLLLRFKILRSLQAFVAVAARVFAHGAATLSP
T1 sequence (P29460 23-328, chain 2 of 2): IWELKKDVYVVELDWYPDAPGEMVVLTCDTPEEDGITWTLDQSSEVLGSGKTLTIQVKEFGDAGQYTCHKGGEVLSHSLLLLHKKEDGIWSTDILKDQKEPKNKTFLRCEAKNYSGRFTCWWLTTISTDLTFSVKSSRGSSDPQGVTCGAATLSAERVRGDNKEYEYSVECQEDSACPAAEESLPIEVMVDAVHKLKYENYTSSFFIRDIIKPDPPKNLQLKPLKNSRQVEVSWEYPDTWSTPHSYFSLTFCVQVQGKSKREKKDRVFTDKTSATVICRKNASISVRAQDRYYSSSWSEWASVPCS
Protocol: The dot blot binding assay previously described was used to characterize the relative potency of the majority of the aptamers synthesized. For KD determination, chemically synthesized aptamers were purified using denaturing polyacrylamide gel electrophoresis, 5′end labeled with γ-³²P ATP and were tested for direct binding to full human IL-23. An 8 point protein titration was used in the dot blot binding assay (either {100 nM, 30 nM, 10 nM, 3 nM, 1 nM, 300 pM, 100 pM, 0 pM} or {10 nM, 3 nM, 1 nM, 300 pM, 100 pM, 30 pM, 10 pM, 0 pM}) in Dulbecco's PBS (with Mg⁺⁺ and Ca⁺⁺) with 0.1 mg/mL BSA. KD values were calculated by fitting the equation y=(max/(1+K/protein))+yint using KaleidaGraph (KaleidaGraph v. 3.51, Synergy Software). Sequences of the ARC979 derivatives synthesized, purified and assayed for binding to IL-23 as well as the results of the protein binding characterization are tabulated below in Tables 29 and 30.

[2] = target: T1, IL-23 (human, p19/p40 heterodimer); test: filter; SHMCK, tRNA; conditions: tags: R&D Systems, carrier free
Protocol: Monitoring Progress of rRfY Selection. Dot blot binding assays were performed throughout the selections to monitor the protein binding affinity of the pools. Trace ³²P-labeled RNA was combined with a dilution series of h-IL-23 and incubated at room temperature for 30 minutes in 1×SHMCK (20 mM Hepes, 120 mM NaCl, 5 mM KCl, 1 mM MgCl₂, 1 mM CaCl₂, pH 7.4) plus 0.1 mg/mL tRNA for a final volume of 20 μL. The binding reactions were analyzed by nitrocellulose filtration using a Minifold I dot-blot, 96-well vacuum filtration manifold (Schleicher & Schuell, Keene, N.H.). A three-layer filtration medium was used, consisting (from top to bottom) of Protran nitrocellulose (Schleicher & Schuell), Hybond-P nylon (Amersham Biosciences) and GB002 gel blot paper (Schleicher & Schuell). RNA that is bound to protein is captured on the nitrocellulose filter, whereas the non-protein bound RNA is captured on the nylon filter. The gel blot paper was included simply as a supporting medium for the other filters. Following filtration, the filter layers were separated, dried and exposed on a phosphor screen (Amersham Biosciences, Piscataway, N.J.) and quantified using a Storm 860 Phosphorimager® blot imaging system (Amersham Biosciences).
When a significant positive ratio of binding of RNA in the presence of h-IL-23 versus in the absence of h-IL-23 was seen, the pools were cloned using a TOPO TA cloning kit (Invitrogen, Carlsbad, Calif.) according to the manufacturer's instructions. For the h-IL-23 and X-IL-23 selections, the Round 8 pool templates were cloned, and 32 individual clones from each selections were assayed in a 1-point dot blot screen (+/−75 nM h-IL-23, as well as a separate screen at +/−75 nM h-IL-12). For the PN-IL-23 selection, the Round 10 pool was cloned and sequenced, and 8 unique clones were assayed for protein binding in a 1-point dot blot screen (+/−200 nM h-IL-23 and a separate screen at +/−200 nM h-IL-12). Subsequently, the Round 10 PN-IL-23 pool was re-cloned for further sequences, as well as the R12 PN-IL-23 pool, and the clones were assayed for protein binding in a 1 point do blot screen (+/−100 nM h-IL-23 or +/−200 nM h-IL-12).

[3] = target: IL-12 (human, p35/p40 heterodimer) (Homo sapiens, UniProt P29459;P29460 SEQ:57-253,SEQ:23-328); test: filter; no significant binding
IL-12 (human, p35/p40 heterodimer), sequence (P29459 23-219, chain 1 of 2): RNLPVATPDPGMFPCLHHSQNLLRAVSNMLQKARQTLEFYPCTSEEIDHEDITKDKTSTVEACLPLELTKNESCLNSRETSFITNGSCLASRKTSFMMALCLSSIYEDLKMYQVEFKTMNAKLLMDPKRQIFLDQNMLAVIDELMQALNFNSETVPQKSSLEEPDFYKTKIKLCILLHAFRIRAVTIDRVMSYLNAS
IL-12 (human, p35/p40 heterodimer), sequence (P29460 23-328, chain 2 of 2): as the sequence (P29460 23-328, chain 2 of 2) above

Row | Binder | Kd [1] [nM] | other results
1 | B1 | 8.6 | 
2 | B2 | 23.5 | 
3 | B3 |  | Kd [2]: 196 nM; binding result [3]: no binding
4 | B4 | 0.5 | 
5 | B5 | 3.7 | 
6 | ACAGGCAAGUAAUUGGGGAGUGCGGGCGGGGUGU (mixed, 2'-OMe C,U and G22; other A,G deoxy; 3'-idT) [ARC1442] | 2.8 | 
7 | ACAGGCAAGUAAUUGGGGAGUGCGGGCGGGGUGU (mixed, 2'-OMe C,U and G18,A19,G20,G22; other A,G deoxy; 3'-idT) [ARC1541] | 3.9 | 
8 | B6 | 5.8 | 
9 | B7 | 2.9 | 
10 | ACAGGCAAGUAAUUGGGGAGUGCGGGCGGGGUGU (mixed, 2'-OMe C,U and G24; other A,G deoxy; 3'-idT) [ARC1443] | 2 | 
11 | ACAGGCAAGUAAUUGGGGAGUGCGGGCGGGGUGU (mixed, 2'-OMe C,U and A11; other A,G deoxy; 3'-idT) [ARC1434] | 3 | 
12 | ACAGGCAAGUAAUUGGGGAGUGCGGGCGGGGUGU (mixed, 2'-OMe C,U and G30; other A,G deoxy; 3'-idT) [ARC1448] | 2.3 | 
13 | B8 | 3.2 | 
14 | ACAGGCAAGUAAUUGGGGAGUGCGGGCGGGGUGU (mixed, 2'-OMe C,U and G26,G28,G29; other A,G deoxy; 3'-idT) [ARC1542] | 1.2 | 
15 | ACAGGCAAGUAAUUGGGGAGUGCGGGCGGGGUGU (mixed, 2'-OMe C,U and A8; other A,G deoxy; 3'-idT) [ARC1432] | 3.8 | 
16 | ACAGGCAAGUAAUUGGGGAGUGCGGGCGGGGUGU (mixed, 2'-OMe C,U and G31; other A,G deoxy; 3'-idT) [ARC1449] | 2.6 | 
17 | B9 | 4 | 
18 | ACAGGCAAGUAAUUGGGGAGUGCGGGCGGGGUGU (mixed, 2'-OMe C,U and G9; other A,G deoxy; 3'-idT) [ARC1433] | 2.8 | 
19 | ACAGGCAAGUAAUUGGGGAGUGCGGGCGGGGUGU (mixed, 2'-OMe C,U and G4; other A,G deoxy; 3'-idT) [ARC1429] | 29.5 | 
20 | B10 | 3.6 | 
21 | ACAGGCAAGUAAUUGGGGAGUGCGGGCGGGGUGU (mixed, 2'-OMe C,U and A12; other A,G deoxy; 3'-idT) [ARC1435] | 9.8 | 
22 | ACAGGCAAGUAAUUGGGGAGUGCGGGCGGGGUGU (mixed, 2'-OMe C,U and G29; other A,G deoxy; 3'-idT) [ARC1447] | 2.5 | 
23 | B11 | 2.7 | 
